The results in this text go back to PMC10276851, “Tozorakimab (MEDI3506): an anti-IL-33 antibody that inhibits IL-33 signalling via ST2 and RAGE/EGFR to reduce inflammation and epithelial dysfunction” (Scientific Reports, 2023).

T1: endogenous IL-33^red derived from human lung tissue (mixture of full-length and N-terminally truncated forms) (human (endogenous in lung tissue), UniProt O95760 1-270)
T1 sequence (looked up): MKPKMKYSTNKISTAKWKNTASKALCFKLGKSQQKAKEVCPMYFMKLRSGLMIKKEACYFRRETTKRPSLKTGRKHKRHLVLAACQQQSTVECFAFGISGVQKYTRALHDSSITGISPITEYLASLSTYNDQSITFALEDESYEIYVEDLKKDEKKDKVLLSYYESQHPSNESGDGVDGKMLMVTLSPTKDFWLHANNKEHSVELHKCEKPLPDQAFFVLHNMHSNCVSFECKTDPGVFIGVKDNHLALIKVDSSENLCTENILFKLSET

T2: IL-33ox (Homo sapiens, UniProt O95760)
T2 chain: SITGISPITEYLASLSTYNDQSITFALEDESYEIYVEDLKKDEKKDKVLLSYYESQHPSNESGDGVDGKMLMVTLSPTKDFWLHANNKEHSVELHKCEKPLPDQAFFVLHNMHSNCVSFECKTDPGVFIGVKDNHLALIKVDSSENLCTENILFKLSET

T3: IL-33red (Homo sapiens, UniProt O95760)
T3 chain: T2 chain

B1: reduced interleukin-33 (IL-33^red), recombinant human, residues 112–270 (ligand, UniProt O95760 112-270, looked up)
chain: T2 chain
notes: interleukin-33, human, residues 112–270, reduced form (free cysteines); Other assays used a biotinylated Avi-tag histidine-tag form or an N-terminally tagged form; also called wild-type IL-33; source: recombinant
B2: soluble serum stimulated 2 (sST2), the truncated, soluble form of ST2 (receptor, UniProt Q01638-2 19-328, looked up)
chain: KFSKQSWGLENEALIVRCPRQGKPSYTVDWYYSQTNKSIPTQERNRVFASGQLLKFLPAAVADSGIYTCIVRSPTFNRTGYANVTIYKKQSDCNVPDYLMYSTVSGSEKNSKIYCPTIDLYNWTAPLEWFKNCQALQGSRYRAHKSFLVIDNVMTEDAGDYTCKFIHNENGANYSVTATRSFTVKDEQGFSLFPVIGAPAQNEIKEVEIGKNANLTCSACFGKGTQFLAAVLWQLNGTKITDFGEPRIQQEEGQNQSFSNGLACLDMVLRIADVKEEDLLLQYDCLALNLHGLRRHTVRLSRKNPSKECF
B3: tozorakimab Fab (antibody, V domains shown)
VH: EVQLLESGGGLVQPGGSLRLSCAASGFTFSSYAMSWVRQAPGKGLEWVSGISAIDQSTYYADSVKGRFTISRDNSKNTLYLQMNSLRAEDTAVYYCARQKFMQLWGGGLRYPFGYWGQGTMVTVSS
VL: SYVLTQPPSVSVSPGQTASITCSGEGMGDKYAAWYQQKPGQSPVLVIYRDTKRPSGIPERFSGSNSGNTATLTISGTQAMDEADYYCGVIQDNTGVFGGGTKLTVLG
modifications: oxidized IL-33
B4: tozorakimab (antibody, V domains shown)
VH: B3 VH
VL: B3 VL

In assay [1] the target is B2. Nature of the assay: KinExA (kinetic exclusion assay); measurement of the association rate constant (ka) of IL-33 interacting with sST2 in free solution. As to conditions: both partners purified.
In assay [2] the target is B2. Nature of the assay: KinExA (kinetic exclusion assay); equilibrium in free solution; IL-33^red against fixed sST2 (30 pM and 2.0 pM datasets), 1:1 binding model fitted to both datasets simultaneously. As to conditions: both partners purified.
In assay [3] the target is B1. Nature of the assay: cell-based or functional assay.
The target in assay [4] is T1, endogenous IL-33^red derived from human …. Nature of the assay: cell-based or functional assay.
The next assay has as its target T2, IL-33ox. Nature of the assay: SPR.
In the next assay the target is T3, IL-33red. Briefly: KinExA.

B1: in assay [1], the kon turned out to be 1.5e+08 M⁻¹ s⁻¹. In addition, the Kd in assay [2] is 0.09 pM.
As to B2, the “IC50 of inhibition of IL-8 release from HUVECs driven by recombinant human IL-33^red (residues 112–270)” value in assay [3] stood at 424 pM. Further, the “IC50 of inhibition of IL-8 release from HUVECs treated with human lung lysate (endogenous IL-33^red)” value in assay [4] is 32 pM.
Molecule B3 gave a Kd in the assay with IL-33ox of 41000 pM.
Molecule B4 returned a Kd in the assay with IL-33red of 0.03 pM.
